Experimental data published in the nanobody polyreactivity screen of Harvey et al. (2022).

Assay: yeast display, Sf9 membrane polyspecificity reagent, FACS + sequencing; frameworks hold sequencing errors
Outline: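 Genes from sorted yeast were amplified by colony PCR, read by MiSeq 2 × 250 sequencing and filtered on CDR length. These cells carried a synthetic nanobody library in Saccharomyces cerevisiae BJ5465 and were sorted by FACS into low and high (top ~1%) gates on anti-HA and streptavidin fluorescence. Polyreactivity is labelled according to the gate of origin.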

| Sequence | polyreactivity (PSR sort gate) |
| --- | --- |
| QVQLVESGGGLVQAGGSLRLSCAASGSICSSYAMGWYRQAPGKERELVAAISGSGGSTFYADSVKGRFTISRDNAKNTVYLQMNSLKPEDTAVYYCAARYYWYGRAGKKHASYYYWGQGTQVTVSS | high polyreactivity |
| QVQLVESGGGLVQAGGSLRLICAASGLIFGRYDMGWYRQAPGKERELVAAISGGTTNYADSVKGRFTISRDNAKNTVYLEMNSLKPEDTAVYYCNAGPSQPGGIFYEYDYWGQGTQVTVSS | low polyreactivity |
| QVQLGESGGGLVQAGGSLRLSCAASGLTFYLYAMGWYRQAPGKERELVAAITTSGGSTYYADSVKGRFTISRDTAKNTVYLQMNSLKPEDTAVYYCATQGALRGYGYWGQGTQVTVSS | high polyreactivity |
| QVQLVESGGGLVQAGGRLRLSCAASGNIFHYNAMGGSRQAPGKERELVAAITWSGGNTYYADSVKGRFTISRDNAKNTVYLQLNSLKPEDTAVYYCAAEFPQRATGGRYKTEYDYWGQGTQVTVSS | low polyreactivity |
| QVQLVESGGGLVQAGGSLRLSCAASGSTFTQYVMGWYRQAPGKERELVAAISDSGSTYYADSVKGRFTISRDNAKNTVYLQMNSLKPEDTAVYYCNADDVDFYYGYGYLEYDYWGQGTQVTVSS | low polyreactivity |
| QVQLVESGGGLVQAGGSLRLSCAASGSIFEDYTRGWYRQAPGKERELVAAIDWSDASTFYADSVKGRFTISRDNAKNTVYLQMSLNPEDTAVYYCNVAIIFYDDDYWGQGTQVTVSS | high polyreactivity |
| QVQLVESGGGLVQAGGSLRLSCAASGTIFATYAMGWYRQAPGKERELVAAITSSDGSTNYADSVKGRFTISRDNAKNTVYLQMNSLKPEDTAVYYCAKDTPQSYFRYDYLGQGTQVTVSS | low polyreactivity |
| QLQLVQSGGGLVQAGGSLRLSCASSGRTFTPNARGWYSQAPGKEREMVAAISWRGGSTYYADAVMGRFTISRVNGKYTVYLEMKSLKPEDTGVYYCKKRSDKSYTRTEYDNWRQGTQVTVSS | high polyreactivity |
| QVQLVESGGGLVQAGGSLRLSCAASGRIFGVYAMGWYRQAPGKERELVATIRSSGTRTNYADSVKGRFTISRDNAKNTVYLQMNSLKPEDTAVYYCAAGGRPYKLDFTRSDYWGQGTQVTVSS | low polyreactivity |
| QVQLVESGGGLVQAGGSLRLSCAASGIIFHFNEMGWYRQAPGKERELVAAITSGGSTNYADSVKGRFTISRDNAKNTVYLQMNSLKPEDTAVYYCAARRGLRLFAYRHGYWGQGTQVTVSS | low polyreactivity |
| QVQLVESGGGLVQAGGSLRLSCAASGSIFVWYAMGWYRQAPGKERELVAAISSSGDNTYYADSVKGRFTISRDNAKNTVYLQMNSLKPEDTAVYYCAAKSYWGQGTQVTVSS | high polyreactivity |
| QVQLVESGGGLVQAGGSLRLSCAATGSTFDDNVMGWYRQAHGKVRELVAAITTSGGSTFYADSVKWRFTISRDNAKNTVYLQMNSLKPEDTAVYYCNAVYFGLWGYYARRSYNYWGQGTQVTVSS | low polyreactivity |
| QVQLVESGGGLVQAGGSLRLSCAASGLIFFPKAMGGYRPAPGKERELVAYITWSGGGTNYSDSVKGRFTISRDNAKNTVYLQMNSLKPEDTAVYYCNADGTRDYFSLITGSYSVTYDYWGQGTQVTVSS | high polyreactivity |
| QVQLVESGGGLVQAGGSHRLSCAASGRLFRYYDMGWYRQAPGKERELVARISSTGRTYADSVMGRFTISRDNAKNTVYLQMNSLKPVDTAVYYCAALFHTRGHSKYDYWGQGTQVTVSS | high polyreactivity |
| QVQLVESGGGLVQAGGSLRLSCAASGSIIRGNAMGWYRQAPGKERELVAAISGSGGSTYYADSVKGRFTISRDNAKNTVYLQMNSLKPEDTAVYYCAARYVTSIYAYYYWGQGTQVTVSS | high polyreactivity |
| QVQLVESGGGLVQAGGSLRLSCAASGSILSFNAMGWDRQAPGNERELVAAISRGGSTNYADSVKGRFTISRDNAKNTVYLQMNSLKPEDTAVYYCAAVQYRYSTRWARRAYDYWGQGTQVTVSS | high polyreactivity |
| QVQLVESGRGLVQAGGSLRLSCAASGRTFAYYAMGWYRQAPGKERELVAGITTGGITNYADSVKGRFTISRDNAKNTVYLEMNRLKPEDTAVYYCAKANLFTYWYPGGNFDSAQSDYWGQGTQVTVSS | low polyreactivity |
| QVQLVESGGGLDPAGGSLRLSCAASGITFSYYAMGWYRQAPGKERELVAAISSSGSTYYADSVKGRFTISRDNAKNTDYLQMNSLKPEDTAVYYCAAEIRYYEYDYWGQGTQVTVSS | low polyreactivity |
| QVQLVESGGGLVQAGGSLRLSCAASGRTFSRYAMGWYRQAPGKERELVAAISNSGASTYYADSVKGRFTISRDNAKNTVYLQMNSLKPEDTAVYYCAAERYRLSYQYQEYYYWGQGTQVTVSS | high polyreactivity |
| QVQLVESGGGLVQAGGSLRLSCAASGVIFVNNGMGWYRQAPGKERELVAAISSGGSTNYADSVKGRFTIARDNAKNTDYLQMNSLKPEDTAVYYCAVVDYLWLLQLWLSDYWGQGTQVTVSS | low polyreactivity |
| QVQLVESGGGLVQAGGSLRLSCAASGSTFGSYGMGWYRQSPGKERELVAGITSAGSTYYADSVKGRFTISRDNAKNTVYLQMNSLKPEDTAVYYCNARSGIVWYYDNDYWGQGTQVTVSS | low polyreactivity |
| QVQLVESGGGLVQAGGSLRLSCAASGRIFKFNAMGWYRQAPGKVRELVAATWSGGRTSYADSVKGRFTISRDNAKNTVYLQMNSLKPEDTAVYYCNAADWIDVQYDYGGQGTQVTVSS | low polyreactivity |

| Sequence | polyreactivity (PSR sort gate) |
| --- | --- |
| QVQLQESGGGLVQAGGSLRPSCAASGSISDGVPMGCYRQAPGEERELVATTVLGATTNYADSVKGRFTISRGNAKNTVYLQMNSLKPEETAVYYCAAPLRYDKGFSYWGQGTQVTVSS | low polyreactivity |
| QVQLVESGGGLVQAGGSLRLSCAASGRILYKYAMGWYRQAPGKERELVAAISWRGTTTYYADSVKGRFTISRDNAKNTVYLQMNSLKPEDTAVYYGAIDRSYGYFSRPVSQYDYWGQGTQVTVSS | high polyreactivity |
| QVQLVESGGVLVQAGGSLRLSCAASGLICVPYSMGWYRQAPGKERELVAAISWRGGITYYADSVKGRFTISRDNAKNNVYLQMNSLKPEDTAVYYCAADGPYTGDGALDYWGQGTQVTVSS | high polyreactivity |
| QVQLVESGGGLVQAGGSLRLSCAASGRIFGFYAMGWYRQAPGKERELVAVITYRDGRTYYADSVKGRFTISRDNAKNTVYLQMNSLKPQDTAVYYCAADRGVYDPGDYWGQGTQVTVSS | low polyreactivity |
| QVHLVESGGSLVQAGGSLRLSCAASGFIFSWYAMGWYRQAPGKERELLAAISHEGGYTYYADSVKGRFTISRDNSKNNVYLQMYSLKPEDTAVYYCAPAFRAAGRSVRYYWGHGTQVTVSS | high polyreactivity |
| QVQLVESGGGLVQAGGSLRLSCAASGSIFRYYAMGWYRQAPGKERELVAAISSSGGSTYYADSVKGRFTISRDNAKNTVYLQMNSLKPEDTAGYYCAAVYTQSNSATMYYWGQGTQVTVSS | high polyreactivity |
| QVQIVESRGGIVQAGGSLRLRCAASGSTFAGNAMGWYRQPPGKERELVAAITSSGGTTYYADSVKGRFTISRDNEKNTVYLQMNSLKPEDSAVYYCAAKSRRTRRSYYWGQGTQVNVSS | high polyreactivity |
| QVQLVESGGGLVQAGGSLRLSCAASGSTFWFNAMGWYRQAPGKERELVAAIDSNTGSTSYADSVKGRFTISRDNAKNTVYLQMNSLIPEDTAVYYCNADYDFAKDRGDYWGQGTQVTVSS | low polyreactivity |
| QDQLVDSGGGLVQAGGSLRLSCAASGSIFYLYAMGWYRQAPGKEREFVAAITWRGGSTYYADSVKGRFTISRDNAKNTVYLQLNSLKPEDTAVYYCGAKLPRVYGYGFEYWGQGTQVTVSS | low polyreactivity |
| QVQLVESGGGLVQAGGSLRLSCAASGSIFVVYAMGWYRQAPGKERELVASIRTGGSTNYADSVKGRFTISRDNAKNTVYLQMNSLKPEDTAVYYCAAASWNSNSHYYVARYYYWGHGTQVTVSS | high polyreactivity |
| QVQLVESGGGLVQAGGRLRLSCAATGSTFEVYAMGWYRQAPGKERELVAVINVSDGSTYYADSVKGRFTISRDNAKNTVYLQMNSLKPEDTAVYLCAAYLYNRPYQLTGYYDGYGYWGQGTQVTVSS | low polyreactivity |
| QVQLVESGAGLVQAGGSLRLSCAASGRIFPGYVMGWYRQAHGKERELVAAITRGGSTYYADSVKGRFTISRDNAKNTVYLQMNSLKPDDTAVYYCAAKHSHIHYNYWGQGTQVTVSS | low polyreactivity |
| QVQLVESGGGLVQAGGSLRLSCAASGRIFVRYVMGWYRLAPGKERELVAAINWNGGSTYYADSVKGRFTISRDNAKNTVYLQMNSLKPEDTAVYYGAARGQFYNTRGGYWGQGTQVTVSS | high polyreactivity |
| QDQLVESGGGLVQAGGSLRLICAASASTFTRYAMGWYRQAPGKERELVACITGRGGSTYYADSVKGRFPISRDYAKNTVYLQMNCLKPEDTAVYYCARAEGKCPYSRYWPYRGGYDYWGQGTQVTRSS | high polyreactivity |
| QVQLVESGGGLVQAGGSLRLSCDASGFTFIRNGMGWYRQAPGKERELVAAINSRGGNTYYADSVKGRFTISRDNAKNTVYLQMNSLKPEDTAVYYCNRVVQRWSTQYGYWGQGTQVTVSS | high polyreactivity |
| QGQHVESGGGLVQAGGSLRLSCAASGFTFAHNAMGWDRQAPGKETDFVAAITSRGGSTYYADSVKGRFTISRDNAKNSVYFQMYSPNPEDTAVYYCAADDYIYTVYSYTYQYWGQGTHVTVSS | low polyreactivity |
| QVQLVESGGGLDQAGGSLRLSCAASGRTFDFYAMGWYRQAPGKEMELVAAITFSTGSTTYADSVKGRFTISRDNAKNTVYLQMNSLKPEDTAVYYCAADGDGWWWSYVDRYDYWGQGTQVTVSS | low polyreactivity |
| QVQLVESGGGLVQAGGSLRLSCAASGSTFVRNAMGWYRQAPGKERELVAAISGSGSRTYYADSVKGRFTISRDNAKNTVYLQMNSLKPEDTAVYYCAARITAHEYDYWGQGTQVTVSS | high polyreactivity |
| QVQLVDSGGGLVQAGGILRLSCAASGLTFYDNAMGWYRQAPAKERELVAAISDSGGSTYYADSVKGRFTISRDNAKNTVFLQMNSLKPEDTAVYYCAAAGWQANWEYEYWGQGTQVTVSS | high polyreactivity |
| QVQLVESGGGLVQAGGSLRLSCAASGHIFANYAMGWYRQAPGKERELVAAIRWSASRTYYADSVKGRFTISRDYAKNTVFLQLNSLKPEDTAVYYCAATIYTFWAYYYDYWGQGTQVTVSS | high polyreactivity |
| QVQLVESGGGLVQAGGSLRLSCAASGRTFYPYAMGWYRQAPGKARELVASINWSGASTYYADSVKGRFTISRDNAKNTVYLQMNSLKPEDTAVYYCAARYTPRRYYYWGQGTHVTVSS | high polyreactivity |
